From patent publication US20230392135, “ENGINEERED CAS ENDONUCLEASE VARIANTS FOR IMPROVED GENOME EDITING” (PIONEER HI-BRED INTERNATIONAL, INC., published 2023)
Changes are numbered by the printed parent chain.

Experiments:
Details in all cases: tags: SV40 NLS; chain copies: 2
Cas-alpha 10 A40G+E81G [1] = molecular target: T1, Cas-alpha 10 A40G+E81G (Syntrophomonas palmitatica, UniProt P0DW62 SEQ:1-497); test: cell_activity; PAM 5'-TTC; maize, 37 C
T1 chain: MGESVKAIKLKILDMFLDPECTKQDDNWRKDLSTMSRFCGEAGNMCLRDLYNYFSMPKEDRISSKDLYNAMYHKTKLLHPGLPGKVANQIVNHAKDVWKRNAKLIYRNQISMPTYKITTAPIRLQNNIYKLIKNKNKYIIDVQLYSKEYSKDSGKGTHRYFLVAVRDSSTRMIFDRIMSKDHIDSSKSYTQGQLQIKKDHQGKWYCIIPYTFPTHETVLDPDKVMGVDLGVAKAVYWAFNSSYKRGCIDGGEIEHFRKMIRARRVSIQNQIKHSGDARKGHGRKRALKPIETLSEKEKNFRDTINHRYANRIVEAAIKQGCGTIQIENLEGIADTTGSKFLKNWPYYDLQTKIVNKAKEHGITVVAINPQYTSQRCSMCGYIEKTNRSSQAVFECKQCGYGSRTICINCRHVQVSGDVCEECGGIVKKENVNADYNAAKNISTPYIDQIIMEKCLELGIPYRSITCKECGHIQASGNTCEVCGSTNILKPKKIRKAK

[2] = molecular target: T2, Cas-alpha 10 A40G+E81G+T335R (Syntrophomonas palmitatica, UniProt P0DW62 SEQ:1-497); test: cell_activity; PAM 5'-TTC; maize, 37 C
T2 chain: T1 chain with T335R

Cas-alpha 10 A40G+E81G [3] = molecular target: T1, Cas-alpha 10 A40G+E81G; test: cell_activity; PAM 5'-TTC; yeast, 45 C; >10-fold sectored colonies at 37 C
Protocol: The cells were then resuspended in 1 ml of EZ 2 solution and aliquoted and either stored at −70° C. or used in the next step. Transformation was performed next by adding 0.5-1 μg (in less than 5 μl) of 2 micron yeast plasmid DNA to 50 μl of competent cells. Optionally, double-stranded DNA repair template with homology flanking the expected Cas-alpha double-strand break site was also included (0.5 μl at 50 μM). After gently mixing in the DNA, 500 μl of EZ 3 solution was added. Next, cells were incubated at 30° C. for 60-90 min. flicking or vortexing the cells 3-4 times over the duration of the incubation. After transformation, cells were grown-out in YPD broth for ˜3 hours, pelleted, washed once with 1 ml of sterile water, resuspended in 1 ml of sterile water, and then ˜200 μl plated onto selective media (for example but not limited to 6.7 g/L yeast nitrogen base without amino acids (Becton Dickinson), 20 g/L glucose (Phytotechnology Labs), 1.92 g/L yeast histidine dropout media (MP Biomedicals) and 20 g/L Bacto Agar (Becton Dickinson)). To determine the culture conditions optimal for activity, cells were incubated at 30° C. until colonies formed, or at a range of temperatures (typically 37° C. and 45° C.) overnight and then placed back at 30° C. until colony growth was visible. […]

Cas-alpha 10 A40G = molecular target: T3, Cas-alpha 10 A40G (Syntrophomonas palmitatica, UniProt P0DW62 SEQ:1-497); test: cell_activity; PAM 5'-TTC; yeast, 45 C
T3 chain: T1 chain with G81E

Cas-alpha 10 E81G = molecular target: T4, Cas-alpha 10 E81G (Syntrophomonas palmitatica, UniProt P0DW62 SEQ:1-497); test: cell_activity; PAM 5'-TTC; yeast, 45 C
T4 chain: T1 chain with G40A

B1: sgRNA IR ; IR target (ssRNA ; dsDNA)
RNA: AUUUACUCUGUUUCGCGCGCCAGGGCAGUUAGGUGCCCUAAAAGAGCGAAGUGGCCGAAAGGAAAGGCUAACGCUUCUCUAACGCUACGGCGACCUUGGCGAAAUGCCAUCAAUACCACGCGGCCCGAAAGGGUUCGCGCGAAACUGAGUAAUGAAAGUCGCAUCUUGCGUAAGCGCGUGGAUUGAAACCACAGGGAGGGAGCAAACAA
DNA 1: CACAGGGAGGGAGCAAACAA
DNA 2: TTGTTTGCTCCCTCCCTGTG
- binding signal (Cas-alpha 10 A40G+E81G [1]): ~5 fold vs wild type indels
- binding signal [2]: ~17 fold vs wild type indels

B2: sgRNA1, ade2 target 2, 20 nt spacer ; ade2 target 2 (ssRNA ; dsDNA)
RNA: AUUUACUCUGUUUCGCGCGCCAGGGCAGUUAGGUGCCCUAAAAGAGCGAAGUGGCCGAAAGGAAAGGCUAACGCUUCUCUAACGCUACGGCGACCUUGGCGAAAUGCCAUCAAUACCACGCGGCCCGAAAGGGUUCGCGCGAAACUGAGUAAUGAAAGUCGCAUCUUGCGUAAGCGCGUGGAUUGAAACUUUAGUGUAGGAACAUCAAC
DNA 1: TTTAGTGTAGGAACATCAAC
DNA 2: GTTGATGTTCCTACACTAAA
- binding signal (Cas-alpha 10 A40G+E81G [3]): ~3 fold vs wild type (red colonies, score 2)
- binding signal (Cas-alpha 10 A40G): ~2 fold vs wild type (red colonies, score 2)
- binding signal (Cas-alpha 10 E81G): ~2 fold vs wild type (red colonies, score 2)
